# In publication PMC10976570:
# Biological target: wild-type PlaF (phospholipase A1 PlaF, PA2949) from Pseudomonas aeruginosa (Pseudomonas aeruginosa)
# Experiment: cross-linking
substance,measurement,value
"wild-type PlaF (phospholipase A1 PlaF, PA2949) from Pseudomonas aeruginosa (enzyme)",more dimer in the C10-treated sample than in the untreated one,70%
same,stoichiometry N,2
